These results are taken from the array DNA melting data of Ke et al..

A short description of the data set: melting temperature; UV melt of duplexes.

Turning to “TGATTCTACCTATGTGATTT+AAATCACATAGGTAGAATCA ((((((((((((((((((((+))))))))))))))))))))”, the Tm by setting is: (sodium 0.07 M, strand 2 µM) 49.1 °C; (sodium 0.12 M, strand 2 µM) 53.5 °C; (sodium 0.22 M, strand 2 µM) 57.4 °C; (sodium 0.62 M, strand 2 µM) 62.3 °C; (sodium 1.02 M, strand 2 µM) 64.4 °C.

For the substance “GTATAACCGGTTATAC+GTATAACCGGTTATAC ((((((((((((((((+))))))))))))))))”, the Tm (sodium 1 M, strand 0.0001 M) is 65.9 °C.

In the case of “AATATATGAATTCTAATTAA+TTAATTAGAATTCATATATT ((((((((((((((((((((+))))))))))))))))))))”, the Tm (sodium 0.12 M, strand 6 µM) stood at 44.7 °C.

In the case of “AAGGCGAGTCAGGCTCAGTG+CACTGAGCCTGACTCGCCTT ((((((((((((((((((((+))))))))))))))))))))”, the Tm (sodium 0.07 M, strand 2 µM) came out at 64.5 °C; the midpoint of thermal melting (Tm) (sodium 0.12 M, strand 2 µM) is 67.7 °C; the Tm (sodium 0.22 M, strand 2 µM) was 71.4 °C; the Tm (sodium 0.62 M, strand 2 µM) was 75.1 °C; the Tm (sodium 1.02 M, strand 2 µM) turned out to be 76.3 °C.

As for “CAGCAGCAGCAGCAGCAGCAGCAGCAGCAG+CTGCTGCTGCTGCTGCTGCTGCTGCTGCTG ((((((((((((((((((((((((((((((+))))))))))))))))))))))))))))))”, the Tm (sodium 0.15 M, strand 0.0001 M) was 83 °C.

Take “AATATCTCTCATGCGCCAAGCTACA+TGTAGCTTGGCGCATGAGAGATATT (((((((((((((((((((((((((+)))))))))))))))))))))))))”: the Tm stood at 62.1 °C (sodium 0.07 M, strand 2 µM); 65.7 °C (sodium 0.12 M, strand 2 µM); 70.3 °C (sodium 0.22 M, strand 2 µM); 75.1 °C (sodium 0.62 M, strand 2 µM); 76.5 °C (sodium 1.02 M, strand 2 µM).

As for “CGCGCGCGACTGACTG+CAGTCAGTCGCGCGCG ((((((((((((((((+))))))))))))))))”, the Tm (sodium 0.12 M, strand 44 µM) worked out at 69.4 °C.
